For this test, the target named is T1, recombinant His-PABPC1 (human, UniProt P11940 1-636).
T1 construct: hsPABPC1 expressed from pET53-DEST; also called N-His6-tagged hsPABPC1; source: E. coli Rosetta 2(DE3) pLysS, purified (HisTrap FF, HiTrap Heparin HP, Superdex 200); not shown: His6, N-terminal, kept
Put plainly: pull-down; biotinylated 42-nt RNA (22 nt of the SRSF4 3′ UTR followed by A20, or by 20 V as control) on NeutrAvidin agarose beads, incubated with 2 μg His-MKRN1-WT and/or His-PABPC1, 1 h at 4 °C, 50 mM Tris-HCl pH 7.4, 500 mM KCl, 12.5 mM MgCl2, 1% Triton X-100; SDS-PAGE with Coomassie staining. The note with it: both partners purified.

T1 sequence (P11940 whole entry): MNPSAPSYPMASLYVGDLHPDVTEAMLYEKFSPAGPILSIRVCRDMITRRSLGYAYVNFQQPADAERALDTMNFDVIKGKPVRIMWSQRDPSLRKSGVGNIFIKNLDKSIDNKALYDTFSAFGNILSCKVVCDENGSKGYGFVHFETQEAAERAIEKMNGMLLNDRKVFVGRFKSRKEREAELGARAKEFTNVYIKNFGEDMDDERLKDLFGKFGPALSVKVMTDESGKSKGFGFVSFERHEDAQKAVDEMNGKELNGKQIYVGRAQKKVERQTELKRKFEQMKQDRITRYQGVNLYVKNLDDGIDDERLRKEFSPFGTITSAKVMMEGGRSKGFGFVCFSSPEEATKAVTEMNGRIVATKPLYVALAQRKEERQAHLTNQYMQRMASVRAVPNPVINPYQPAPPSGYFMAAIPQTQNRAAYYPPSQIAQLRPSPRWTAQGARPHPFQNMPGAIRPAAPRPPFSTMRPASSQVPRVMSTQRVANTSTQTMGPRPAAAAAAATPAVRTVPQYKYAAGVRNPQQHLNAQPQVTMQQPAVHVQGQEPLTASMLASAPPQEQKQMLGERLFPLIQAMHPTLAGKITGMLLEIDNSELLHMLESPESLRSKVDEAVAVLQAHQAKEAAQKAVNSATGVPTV

B1: recombinant His-MKRN1^wt (natural protein, human, UniProt Q9UHC7 1-482, looked up)
chain: MAEAATPGTTATTSGAGAAAATAAAASPTPIPTVTAPSLGAGGGGGGSDGSGGGWTKQVTCRYFMHGVCKEGDNCRYSHDLSDSPYSVVCKYFQRGYCIYGDRCRYEHSKPLKQEEATATELTTKSSLAASSSLSSIVGPLVEMNTGEAESRNSNFATVGAGSEDWVNAIEFVPGQPYCGRTAPSCTEAPLQGSVTKEESEKEQTAVETKKQLCPYAAVGECRYGENCVYLHGDSCDMCGLQVLHPMDAAQRSQHIKSCIEAHEKDMELSFAVQRSKDMVCGICMEVVYEKANPSERRFGILSNCNHTYCLKCIRKWRSAKQFESKIIKSCPECRITSNFVIPSEYWVEEKEEKQKLILKYKEAMSNKACRYFDEGRGSCPFGGNCFYKHAYPDGRREEPQRQKVGTSSRYRAQRRNHFWELIEERENSNPFDNDEEEVVTFELGEMLLMLLAAGGDDELTDSEDEWDLFHDELEDFYDLDL
notes: hsMKRN1 expressed from pET53-DEST; also called N-His6-tagged hsMKRN1; source: E. coli Rosetta 2(DE3) pLysS, purified (HisTrap FF, HiTrap Q HP, Superdex 200); not shown: His6, N-terminal, kept
With B1, the binding result is reported as “binds”.

Values taken from paper PMC6805484, “The RNA-binding ubiquitin ligase MKRN1 functions in ribosome-associated quality control of poly(A) translation” (Genome Biology, 2019).
